In PMC8956199, “The mismatched nucleotides encoded in vaccinia virus flip-and-flop hairpin telomeres serve an essential role in virion maturation”:

T1: I1 telomere-binding protein (UniProt P16714 1-312)
T1 sequence: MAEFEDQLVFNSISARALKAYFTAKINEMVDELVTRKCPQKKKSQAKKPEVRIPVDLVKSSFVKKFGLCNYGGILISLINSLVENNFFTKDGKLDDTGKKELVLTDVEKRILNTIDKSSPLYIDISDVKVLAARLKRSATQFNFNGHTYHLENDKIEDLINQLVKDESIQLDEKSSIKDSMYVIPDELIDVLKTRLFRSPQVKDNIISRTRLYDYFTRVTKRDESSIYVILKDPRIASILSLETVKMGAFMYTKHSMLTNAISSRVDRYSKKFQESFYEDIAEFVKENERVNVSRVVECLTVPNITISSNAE

B1: S hairpin (VACV WR telomere, wild type) (structured_DNA)
DNA: ACATTTTTTTCTAGACACTAAATAAAATATTTAAAATATAATATTAATGTACTAAAACTTATATATTATTAATTTATCTAACTAAAGTTAGTAAATTATATATATAATTTTATAATTAATTTAATTTTACTAATTTTATTTAGTGTCTAGAAAAAAA
modifications: 5' phosphate
B2: SΔ1–3 hairpin (structured_DNA)
DNA: ACATTTTTTTCTAGACACTAAATAAAATATTTAAAATATAATATTAATGTACTAAAATTATATATTAATTTACTAACTAAAGTTAGTAAATTAATATATAATTTTATAATTAATTTAATTTTACTAATTTTATTTAGTGTCTAGAAAAAAA
modifications: 5' phosphate

Key:
[1] = biological target: T1, I1 telomere-binding protein; assay: EMSA, competition; 700 ng poly d(IC), 0-300 ng unlabeled S hairpin; reference; conditions: protein: recombinant; tags: His6 (pET151/D-TOPO vector); label: 3' fill-in with Alexa Fluor 647-aha-dUTP (Results say Cy5-dUTP)
[2] = biological target: T1, I1 telomere-binding protein; assay: EMSA, competition; 700 ng poly d(IC), 0-300 ng unlabeled S hairpin; behaved much like S; conditions: protein: recombinant; tags: His6 (pET151/D-TOPO vector); label: 3' fill-in with Alexa Fluor 647-aha-dUTP (Results say Cy5-dUTP)

| Binder | binding result [1] | binding result [2] |
| --- | --- | --- |
| B1 | binds | – |
| B2 | – | binds |
